This is an account of results in US20240101685A1, “NEAR INFRARED PHOTOIMMUNOTHERAPY (NIR-PIT) COMBINATION THERAPY TO TREAT CANCER” (THE UNITED STATES OF AMERICA, as represented by the …, priority 2021, published 2024).

The experiment concerns PD-L1 expression on cancer cell lines MC38-luc and LL2-luc. Briefly: Flow-cytometric analysis of PD-L1 expression with or without interferon gamma. The class given is cell-based. To be noted: cell culture, 20 ng/ml or 50 ng/ml IFNgamma. How it is done: FIG. 12: Flow cytometry analysis showing PD-L1 expression in cancer cell lines before and after stimulation with 20 ng/ml or 50 ng/ml IFNgamma (IFNγ).

B1: interferon gamma: immunoactivator cytokine (protein, UniProt P01579 24-161, looked up)
Interferon gamma: QDPYVKEAENLKKYFNAGHSDVADNGTLFLGILKNWKEESDRKIMQSQIVSFYFKLFKNFKDDQSIQKSVETIKEDMNVKFFNSNKKKRDDFEKLTNYSVTDLNVQRKAIHELIQVMAELSPAAKTGKRKRSQMLFRG
For B1, the PD-L1 expression result is listed as “conditionally enhanced the expression of PD-L1”. For the same molecule, the PD-L1 expression entry (listed as IFN-gamma) was “PD-L1 expression increases”.
